Measured values taken from the supplement of paper PMC9732359.
± gives the uncertainty stated by the source.

Experiment: protein stability index of a GFP-peptide fusion (yeast GPS) (PSI 1-4); higher = more stable; sorted into four equal gates, so the index is relative within each strain
In short: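 Tiled yeast protein peptides of 17 residues were each joined downstream of GFP, on plasmids that also express Cherry. The pooled library was maintained in yeast, and mid-log cultures in leucine-free medium were sorted into four equal gates on the GFP/Cherry ratio. Plasmids from every gate were amplified by PCR and sequenced on Illumina, with barcodes linking reads to strains. The protein stability index of a peptide is its gate-number-weighted read frequency summed over the gates.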

DSDGTRLKGDIFCVGSG [PRE2]
protein stability index (doa10∆): 2.88 ± 0.057 | protein stability index (pdr5∆): 2.87 ± 0.057 | protein stability index (san1∆): 2.93 ± 0.091 | protein stability index (ubr1∆): 2.45 ± 0.061

KLEKLRNEKRMFLEFQS [SMC2]
protein stability index (doa10∆): 2.88 ± 0.13 | protein stability index (pdr5∆): 3.3 ± 0.08 | protein stability index (san1∆): 3.15 ± 0.12 | protein stability index (ubr1∆): 3.49 ± 0.092

QFNKILPEPTEGFAADD [FAS1]
protein stability index (doa10∆): 2.79 ± 0.067 | protein stability index (pdr5∆): 3.07 ± 0.08 | protein stability index (san1∆): 2.91 ± 0.081 | protein stability index (ubr1∆): 2.77 ± 0.11

SREAVRHFGMGPHKGKA [RPL18A]
protein stability index (doa10∆): 3.22 ± 0.19 | protein stability index (pdr5∆): 2.8 ± 0.12 | protein stability index (san1∆): 3.04 ± 0.098 | protein stability index (ubr1∆): 3.66 ± 0.16

LDKLNCAINSKSRGSDL [RRP6]
protein stability index (doa10∆): 2.81 ± 0.049 | protein stability index (pdr5∆): 2.93 ± 0.042 | protein stability index (san1∆): 2.79 ± 0.042 | protein stability index (ubr1∆): 2.94 ± 0.032

VKWYHFDHNDKKLSINS [PRE7]
protein stability index (doa10∆): 2.51 ± 0.086 | protein stability index (pdr5∆): 2.38 ± 0.063 | protein stability index (san1∆): 2.15 ± 0.082 | protein stability index (ubr1∆): 2.48 ± 0.1

LFGQSQQPQTNTAPGLG [YGR119C/NUP57]
protein stability index (doa10∆): 2.68 ± 0.2 | protein stability index (pdr5∆): 2.88 ± 0.27 | protein stability index (san1∆): 3.14 ± 0.16 | protein stability index (ubr1∆): 2.97 ± 0.092

GVDLKLKYSKRRSLKKQ [CSN12]
protein stability index (doa10∆): 2.89 ± 0.074 | protein stability index (pdr5∆): 2.75 ± 0.069 | protein stability index (san1∆): 3.27 ± 0.15 | protein stability index (ubr1∆): 3.05 ± 0.036

EEASQQQQLQQNSKEKN [MED2]
protein stability index (doa10∆): 2.85 ± 0.092 | protein stability index (pdr5∆): 2.85 ± 0.086 | protein stability index (san1∆): 2.92 ± 0.071 | protein stability index (ubr1∆): 2.83 ± 0.065

SFGKIYVTKPMVNESDG [RPB2]
protein stability index (doa10∆): 3.12 ± 0.19 | protein stability index (pdr5∆): 3.18 ± 0.14 | protein stability index (san1∆): 3.01 ± 0.2 | protein stability index (ubr1∆): 3.26 ± 0.24

DTKSVVGLVMFSQFWYW [RPN2]
protein stability index (doa10∆): 2.35 ± 0.06 | protein stability index (pdr5∆): 2.3 ± 0.062 | protein stability index (san1∆): 2.61 ± 0.097 | protein stability index (ubr1∆): 2.52 ± 0.04

QLEKKIRFVCLSNCLAN [BRR2]
protein stability index (doa10∆): 1.82 ± 0.065 | protein stability index (pdr5∆): 1.32 ± 0.048 | protein stability index (san1∆): 1.31 ± 0.099 | protein stability index (ubr1∆): 1.63 ± 0.045

YNGRGARERKTATYNDN [SNF2]
protein stability index (doa10∆): 3 ± 0.069 | protein stability index (pdr5∆): 2.54 ± 0.074 | protein stability index (san1∆): 2.69 ± 0.074 | protein stability index (ubr1∆): 2.69 ± 0.071

PDVLLSRVINVVRAASS [RRP6]
protein stability index (doa10∆): 1.26 ± 0.081 | protein stability index (pdr5∆): 1.57 ± 0.066 | protein stability index (san1∆): 1.44 ± 0.12 | protein stability index (ubr1∆): 2.17 ± 0.13

FGSGTQNNNTLGGGGLF [YGR119C/NUP57]
protein stability index (doa10∆): 3.37 ± 0.083 | protein stability index (pdr5∆): 2.94 ± 0.089 | protein stability index (san1∆): 3.07 ± 0.061 | protein stability index (ubr1∆): 3.11 ± 0.054

FNFVLLGQIGACHVEVP [COB]
protein stability index (doa10∆): 1.43 ± 0.085 | protein stability index (pdr5∆): 1.88 ± 0.071 | protein stability index (san1∆): 1.2 ± 0.17 | protein stability index (ubr1∆): 1.6 ± 0.089

NPSYPGMMSTTGTARLN [YJL039C/NUP192]
protein stability index (doa10∆): 2.97 ± 0.097 | protein stability index (pdr5∆): 3.1 ± 0.053 | protein stability index (san1∆): 3.13 ± 0.077 | protein stability index (ubr1∆): 3.24 ± 0.076

GLLDLERVIVVTGFAEV [FAS2]
protein stability index (doa10∆): 2.9 ± 0.17 | protein stability index (pdr5∆): 2.32 ± 0.095 | protein stability index (san1∆): 2.21 ± 0.17 | protein stability index (ubr1∆): 2.16 ± 0.11

DENPDLLGYTGIPTDKG [PRE8]
protein stability index (doa10∆): 1.99 ± 0.05 | protein stability index (pdr5∆): 2.48 ± 0.063 | protein stability index (san1∆): 2.71 ± 0.05 | protein stability index (ubr1∆): 2.28 ± 0.044

VECTISILRKSSPEEPF [SNF12]
protein stability index (doa10∆): 1.27 ± 0.061 | protein stability index (pdr5∆): 1.46 ± 0.064 | protein stability index (san1∆): 2.32 ± 0.066 | protein stability index (ubr1∆): 1.14 ± 0.051

LQNSERDVELSSDELKV [SMC4]
protein stability index (doa10∆): 2.84 ± 0.11 | protein stability index (pdr5∆): 3.12 ± 0.088 | protein stability index (san1∆): 2.73 ± 0.066 | protein stability index (ubr1∆): 3.04 ± 0.12

TSQNPQRDAEISQPKSM [BRR2]
protein stability index (doa10∆): 3.27 ± 0.11 | protein stability index (pdr5∆): 3.04 ± 0.27 | protein stability index (san1∆): 3.11 ± 0.13 | protein stability index (ubr1∆): 2.88 ± 0.11

EIGLLPEDALVNDFSDI [SMC3]
protein stability index (doa10∆): 3.44 ± 0.089 | protein stability index (pdr5∆): 2.91 ± 0.12 | protein stability index (san1∆): 3.19 ± 0.088 | protein stability index (ubr1∆): 3.3 ± 0.11

QESFNSVQNLDQLLTDL [NUT1]
protein stability index (doa10∆): 3.22 ± 0.092 | protein stability index (pdr5∆): 3.2 ± 0.095 | protein stability index (san1∆): 3.04 ± 0.049 | protein stability index (ubr1∆): 3.17 ± 0.068

QGKHTKFENDELAESTT [LRP1]
protein stability index (doa10∆): 3.75 ± 0.23 | protein stability index (pdr5∆): 2.88 ± 0.12 | protein stability index (san1∆): 3.12 ± 0.079 | protein stability index (ubr1∆): 3.21 ± 0.077

FEENDHPNRVLEHLHST [COR1]
protein stability index (doa10∆): 2.96 ± 0.049 | protein stability index (pdr5∆): 2.95 ± 0.052 | protein stability index (san1∆): 3 ± 0.055 | protein stability index (ubr1∆): 3.07 ± 0.049

ERHGYIRGIVKQIVHDS [RPL2A]
protein stability index (doa10∆): 1.6 ± 0.051 | protein stability index (pdr5∆): 1.84 ± 0.072 | protein stability index (san1∆): 1.92 ± 0.062 | protein stability index (ubr1∆): 1.79 ± 0.05

SAHQSPIMQTQMPLNSN [SNF2]
protein stability index (doa10∆): 2.94 ± 0.11 | protein stability index (pdr5∆): 2.37 ± 0.091 | protein stability index (san1∆): 2.54 ± 0.075 | protein stability index (ubr1∆): 2.17 ± 0.053

ESSHEQEEFVQFLQLDN [ECM29]
protein stability index (doa10∆): 3.5 ± 0.21 | protein stability index (pdr5∆): 3.31 ± 0.13 | protein stability index (san1∆): 3.22 ± 0.16 | protein stability index (ubr1∆): 3.29 ± 0.14

LSAADIVAQSEVEVSTR [RPO31]
protein stability index (doa10∆): 2.33 ± 0.09 | protein stability index (pdr5∆): 2.53 ± 0.11 | protein stability index (san1∆): 2.54 ± 0.094 | protein stability index (ubr1∆): 2.84 ± 0.068

QQNIKFRRDFLLREYDI [YJL039C/NUP192]
protein stability index (doa10∆): 2.5 ± 0.058 | protein stability index (pdr5∆): 2.57 ± 0.055 | protein stability index (san1∆): 2.9 ± 0.045 | protein stability index (ubr1∆): 2.63 ± 0.037

NLGSRTKNNTQASGITA [SSN3]
protein stability index (doa10∆): 2.44 ± 0.065 | protein stability index (pdr5∆): 2.38 ± 0.045 | protein stability index (san1∆): 2.18 ± 0.054 | protein stability index (ubr1∆): 2.65 ± 0.043

EARFDVLITSYEMVIRE [ISW2]
protein stability index (doa10∆): 1.87 ± 0.094 | protein stability index (pdr5∆): 1.49 ± 0.089 | protein stability index (san1∆): 1.88 ± 0.11 | protein stability index (ubr1∆): 2.02 ± 0.11

VSKKVDVRRLKKNVWRS [BRN1]
protein stability index (doa10∆): 2.54 ± 0.22 | protein stability index (pdr5∆): 1.33 ± 0.13 | protein stability index (ubr1∆): 3.13 ± 0.13

GLVDENKVEAFKSLYTF [YAR002W/NUP60]
protein stability index (doa10∆): 3.01 ± 0.089 | protein stability index (pdr5∆): 2.65 ± 0.08 | protein stability index (san1∆): 3.39 ± 0.054 | protein stability index (ubr1∆): 2.83 ± 0.043

EYLKGSESQLNSTLKKV [YCS4]
protein stability index (doa10∆): 2.85 ± 0.17 | protein stability index (san1∆): 2.5 ± 0.2

GALDVEGLCIVAGSKCW [RRP45]
protein stability index (doa10∆): 2.83 ± 0.12 | protein stability index (pdr5∆): 2.96 ± 0.11 | protein stability index (san1∆): 2.87 ± 0.077 | protein stability index (ubr1∆): 2.9 ± 0.13

LLRQKIEQCKHPLHELI [ISW2]
protein stability index (doa10∆): 1.37 ± 0.088 | protein stability index (pdr5∆): 1.49 ± 0.081 | protein stability index (san1∆): 1.45 ± 0.22 | protein stability index (ubr1∆): 1.48 ± 0.12

AAKIIYLAHEDNKEKDF [PRE10]
protein stability index (doa10∆): 2.81 ± 0.19 | protein stability index (pdr5∆): 3.18 ± 0.098 | protein stability index (san1∆): 3.25 ± 0.11 | protein stability index (ubr1∆): 3.01 ± 0.23

LQAQDRAHRIGQKNEVR [SNF2]
protein stability index (doa10∆): 3 ± 0.065 | protein stability index (pdr5∆): 3.17 ± 0.077 | protein stability index (san1∆): 2.86 ± 0.073 | protein stability index (ubr1∆): 3.18 ± 0.063

NLLLRELNVEKLNTFNL [SRP72]
protein stability index (doa10∆): 2.71 ± 0.15 | protein stability index (pdr5∆): 3.41 ± 0.2 | protein stability index (san1∆): 2.95 ± 0.099 | protein stability index (ubr1∆): 2.95 ± 0.13

ATLPYIKQDIPIVIIFR [RPB2]
protein stability index (doa10∆): 1.5 ± 0.063 | protein stability index (pdr5∆): 1.2 ± 0.049 | protein stability index (san1∆): 1.19 ± 0.12 | protein stability index (ubr1∆): 1.14 ± 0.041

RDDEPKLYQTEPSGIYS [PRE6]
protein stability index (doa10∆): 3.14 ± 0.058 | protein stability index (pdr5∆): 3.07 ± 0.082 | protein stability index (san1∆): 3.09 ± 0.051 | protein stability index (ubr1∆): 3.18 ± 0.046

SDVLFEFTKINTPLVGA [YJL039C/NUP192]
protein stability index (doa10∆): 1.66 ± 0.042 | protein stability index (pdr5∆): 1.66 ± 0.045 | protein stability index (san1∆): 1.45 ± 0.088 | protein stability index (ubr1∆): 1.47 ± 0.037
